For experiment [1], the target named is T1, recombinant human CFD mutant 1 (R157A, R207A), His-tagged (human, UniProt P00746 26-253).
T1 construct: positions are linear positions in the mature protein; also called rhCFD-mut1-His; Mut1
In words: ELISA, Mut1 Binding, Bin 2. A general note: ELISA stands for enzyme-linked immunosorbent assay.

Experiment [2] concerns the target T1, recombinant human CFD mutant 1 (R157A, …). The experiment is described as follows: ELISA.
Experiment [3] deals with T2, human complement factor D purified from serum (human, UniProt P00746 26-253). In words: cell-based or functional assay.
For experiment [4], the target named is T2, human complement factor D purified from …. The experiment is described as follows: SPR MX96.
The target in experiment [5] is T3, recombinant cynomolgus CFD, His-tagged (cynomolgus).
T3 construct: also called rcyCFD-His; recombinant Cyno-CFD
The experiment is described as follows: SPR MX96.

The target in experiment [6] is T4, recombinant human CFD, His-tagged (human, UniProt P00746 26-253).
T4 construct: also called rhCFD-His
In words: SPR MX96.

For experiment [7], the target named is T2, human complement factor D purified from ….
Experiment [8] addresses T5, serum purified human Complement Factor D (human, UniProt P00746 26-253).
T5 construct: Serum purified protein flowed over the captured antibodies; also called CFD; human CFD
The experiment is described as follows: SPR Biacore, 25 C.

The target of experiment [9] is T5, serum purified human Complement Factor D. In words: SPR Biacore, 37 C.
The target is the same in experiment [10]. In words: SPR Biacore, antibody on protein A chip, single cycle kinetics, 37 C.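 Note: antibodies captured on the protein A surface to roughly 70 RU in HBS-EP+ buffer, with rate and affinity constants fitted using BIAevaluation software.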 A general note: Surface plasmon resonance follows binding to a sensor surface in real time, without labels.
For experiment [11] the target is unchanged. In words: SPR Biacore, 25 C. The source holds these as a separate data set.
For experiment [12] the target is unchanged. The experiment is described as follows: SPR Biacore, 37 C. This is another data set of the same source.
Experiment [13] shares this target. In words: SPR Biacore, antibody on protein A chip, single cycle kinetics, 25 C.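 Note: antibodies captured to roughly 70 RU on the protein A surface in HBS-EP+ running buffer, with kinetic constants derived by BIAevaluation fitting.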

Values joined by “and” are separate entries in the source; they are usually repeats but may differ in a detail not shown here. Equal values may be shown once. Read-outs that look alike come from different tables or passages of the source.

For orientation: Kd means the equilibrium constant for the complex coming apart. One may read the koff as the first-order rate constant of dissociation. What is called kon is the rate constant with which the complex forms. The low end stands for slower complex formation, the high end for faster complex formation.
Throughout, for CFD Enzymatic activity (% of Neg Ctrl): test concentration or dose not given here.

T1 sequence (P00746 26-253 R182A/R232A limits assumed): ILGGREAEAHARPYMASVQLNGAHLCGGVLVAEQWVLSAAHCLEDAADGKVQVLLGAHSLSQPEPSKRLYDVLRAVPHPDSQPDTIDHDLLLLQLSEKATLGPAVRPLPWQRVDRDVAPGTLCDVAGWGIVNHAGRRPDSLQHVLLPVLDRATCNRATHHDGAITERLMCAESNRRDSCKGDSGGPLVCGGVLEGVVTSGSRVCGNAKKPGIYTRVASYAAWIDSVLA
T2 sequence (P00746 26-253): as the sequence (P00746 26-253 R182A/R232A limits assumed) above, with A157R, A207R counted along it
T5 sequence (P00746 26-253): as the sequence (P00746 26-253 R182A/R232A limits assumed) above, with A157R, A207R counted along it
T4 sequence (P00746 26-253 limits assumed): as the sequence (P00746 26-253 R182A/R232A limits assumed) above, with A157R, A207R counted along it

B1: KCD122 (antibody, V domains shown)
VH: EVQLQQSGPELVKPGASVKISCKASGYTFTDYYKNWMRQRHGESLEWIGDINPNNGDANYNQKFKGKATLTVDKSSSTAYMELRSLTSEDSAVYFCAREGPSFAYWGHGTLVTVSA
VL: DVLMTQTPLSLPVSLGDQASISCRSSQTIVHSNGDTYLEWYLQKPGQSPNLLIYKVSNRFSGVPDRFSGSGSGTDFTLKISRVEAEDLGVYYCFQGSHVPPTFGGGTKLEIK
notes: chimeric
B1: the binding result in experiment [1] was “no binding”. For the same molecule, the “Mut1 Binding (% wt)” value in experiment [2] came out at 2.25 % wt. The “CFD Enzymatic activity (% of Neg Ctrl)” value in [3] is 17.3 % of Neg Ctrl. For the same molecule, the Kd in experiment [4] amounted to 1.4 nM; in experiment [5], 1.9 nM; in experiment [6], 0.95 nM; in experiment [7], 0.162 nM.

B2: KCD005 (antibody, V domains shown)
VH: EVQLQQSGPELVKPGASVKISCKASGYTFTDHYMNWVKQSHGKSLEWIGDINPNNGGTSCNQKFKGKATLTVDKSSSTAYMELRSLTSGDSAVYYCTREGASFAFWGQGTLVTVSA
VL: DVLMTQTPLSLPVSLGDQASISCRSSQSIVHSNGDTYLEWYLQKPGQSPKLLIYKVSNRFSGVPDRFSGSGSGTDFTLKISRVEAEDLGVYYCFQGSHVPVTFGAGTKLELK
notes: chimeric
With B2, in experiment [1], the binding result is listed as “no binding”. In experiment [2], the “Mut1 Binding (% wt)” value was found to be 1.79 % wt. Also, in [3], the “CFD Enzymatic activity (% of Neg Ctrl)” value was 49.2 % of Neg Ctrl. Besides, the Kd is 1.4 nM in [4], 2.3 nM in experiment [5], 1.2 nM in experiment [6] and 0.726 nM in [7].

B3: KCD003 (antibody, V domains shown)
VH: EVQLQQSRPELVKPGASVKIFCKASGYTFTDYYMNWMRQRHGETLEWIGDINPNNGDPSYNQKFKDKATLTVDKSSSTASMELRSLTSDDSAVYYCAREGPSFAYWGQGTLVTVSA
VL: DVLMTQTPLSLPVSLGEQASISCRSSQTIVHSNGDTYLEWYLQKPGQSPNLLIYKVSNRFSGVPDRFSGSGSGTDFTLKISRVEAEDLGVYYCFQGSHVPPTFGGGTKLEIK
notes: chimeric
For B3, the binding result in experiment [1] was “no binding”. For the same molecule, the “Mut1 Binding (% wt)” value in [2] worked out at 1.53 % wt. Besides, the “CFD Enzymatic activity (% of Neg Ctrl)” value in experiment [3] is 19.6 % of Neg Ctrl. In addition, the Kd in [4] was 1.1 nM; in [5] it was 1.8 nM; in experiment [6] it was 0.81 nM; in experiment [7] it was 0.318 nM.

B4: KCD118 (antibody, V domains shown)
VH: EVQLQQSGPELVKPGASVKISCKAFGYTFTDYYKNWMRQRHGESLEWIGDINPNSGDANYNQKFKGKATLTVDKSSSTAYMELRSLTSEDSAVYYCAREGPSFAYWGHGTLVTVSA
VL: DVLMTQTPLSLPVSLGDQASISCRSSQTIVHSNGDTYLEWYLQKPGQSPNLLIYKVSNRFSGVPDRFSGSGSGTDFTLKISRVEAEDLGIYYCFQGSHVPPTFGGGTKLEIK
notes: chimeric
For B4, the binding result in experiment [1] is given as “no binding”. The “Mut1 Binding (% wt)” value in experiment [2] is 0.762 % wt. In [3], the “CFD Enzymatic activity (% of Neg Ctrl)” value is 14 % of Neg Ctrl. Moreover, the Kd in experiment [4] stood at 0.76 nM; in [5] it was 1.3 nM; in experiment [6] it was 0.54 nM; in [7], 0.0883 nM.

B5: KCD121 (antibody, V domains shown)
VH: EVQLQQSGPELVKPGASVKISCKASGYTFTDYYKNWMRQRHGESLEWIGDINPNNGDTSYNQKFRGKATLTVDKSSSTAFMELRSLTSEDSAVYYCAREGPSFAYWGQGTLVTVSA
VL: DVLMTQTPLSLPVSLGDQASISCRSNQTIVHSNGDTYLEWYLQKPGQSPNLLIYKVSNRFSGVPDRFSGSGSGTDFTLRISRVEAEDLGVYYCFQGSHVPPTFGGGTKLEIK
notes: chimeric
With B5, the binding result in [1] is “no binding”. Also, the “Mut1 Binding (% wt)” value in experiment [2] stood at 0.602 % wt. For the same molecule, in experiment [3], the “CFD Enzymatic activity (% of Neg Ctrl)” value was 16.7 % of Neg Ctrl. In addition, the Kd in experiment [4] came to 1.8 nM; in [5], 2.9 nM; in [6] it was 1.3 nM; in experiment [7], 0.293 nM.

B6: KCD123 (antibody, V domains shown)
VH: EVHLQQSGPELVKPGASVKISCKASGYTFTDFYKNWMRQRHGESLEWIGDINPNNGGTNYNQKFKGKATLTVDKSSSTAYMELRSLTSEDSAVYYCAREGPSFAYWGQGTLVTVSA
VL: DVLMTQTPLSLPVSLGDQASISCRSSQTIVHSNGDTYLEWYLQKPGQSPNLLIYKVSNRFSGVPDRFSGSGSGTDFTLKISRVEAEDLGVYYCFQGSHVPPTFGGGTKLEIK
notes: chimeric
With B6, the binding result in experiment [1] is given as “no binding”. The “Mut1 Binding (% wt)” value in experiment [2] was 2.91 % wt. In experiment [3], the “CFD Enzymatic activity (% of Neg Ctrl)” value was 18.7 % of Neg Ctrl. For the same molecule, the Kd amounted to 2.8 nM in experiment [4], 2.9 nM in [5], 1.3 nM in [6] and 0.277 nM in experiment [7].

B7: 31S54I59D / 54R101V (antibody, V domains shown)
VH: EVQLVESGGGLVQPGGSLRLSCAASGYTFTSYYMNWVRQAPGKGLEWIGDINPITGDTDYNADFKRRFTFSLDTSKSTAYLQMNSLRAEDTAVYYCTREGPSFAYWGQGTLVTVSS
VL: DIQLTQSPSSLSASVGDRVTITCRSSQTIVHSNGDTYLEWYQQKPGKAPNLLIRKVSNRFSGVPSRFSGSGSGTDFTLTISSLQPEDFATYYCFQGSHVPVTFGQGTKVEIKR
notes: KCD119 TAF variant
Consider B7, for which the Kd was 0.00836 nM in experiment [8]; 0.00691 nM in [9]; 0.00605 nM and 0.00691 nM and 0.00817 nM in [10]; 0.00366 nM in experiment [11]; 0.00817 nM in [12]; 0.00779 nM and 0.00366 nM and 0.00836 nM in [13]. The koff was 0.00012 s⁻¹ in experiment [8]; 0.000214 s⁻¹ in experiment [9]; 0.00021 s⁻¹ and 0.000214 s⁻¹ and 0.000227 s⁻¹ in experiment [10]; 5.12e-05 s⁻¹ in experiment [11]; 0.000227 s⁻¹ in [12]; 7.94e-05 s⁻¹ and 5.12e-05 s⁻¹ and 0.00012 s⁻¹ in experiment [13]. Moreover, the kon in experiment [8] was 1.44e+07 M⁻¹ s⁻¹; in experiment [9], 3.09e+07 M⁻¹ s⁻¹; in experiment [10], 3.48e+07 M⁻¹ s⁻¹ and 3.09e+07 M⁻¹ s⁻¹ and 2.78e+07 M⁻¹ s⁻¹; in experiment [11] it was 1.4e+07 M⁻¹ s⁻¹; in [12], 2.78e+07 M⁻¹ s⁻¹; in [13] it was 1e+07 M⁻¹ s⁻¹ and 1.4e+07 M⁻¹ s⁻¹ (2×).

B8: 31S54I59D84S / 54R101V (antibody, V domains shown)
VH: EVQLVESGGGLVQPGGSLRLSCAASGYTFTSYYMNWVRQAPGKGLEWIGDINPITGDTDYNADFKRRFTFSLDTSKSTAYLQMSSLRAEDTAVYYCTREGPSFAYWGQGTLVTVSS
VL: DIQLTQSPSSLSASVGDRVTITCRSSQTIVHSNGDTYLEWYQQKPGKAPNLLIRKVSNRFSGVPSRFSGSGSGTDFTLTISSLQPEDFATYYCFQGSHVPVTFGQGTKVEIKR
notes: also called 31554159D845 / 54R101V
B8: the Kd in experiment [9], in experiment [10], in experiment [11] and in experiment [13] was 0.00613 nM each time. Further, the koff in experiment [9] worked out at 0.000174 s⁻¹; in [10], 0.000174 s⁻¹; in [11] it was 9.14e-05 s⁻¹; in [13] it was 9.14e-05 s⁻¹. Also, the kon is 2.84e+07 M⁻¹ s⁻¹ in experiment [9], 2.84e+07 M⁻¹ s⁻¹ in experiment [10], 1.49e+07 M⁻¹ s⁻¹ in [11] and 1.49e+07 M⁻¹ s⁻¹ in [13].

B9: KCD010 (antibody, V domains shown)
VH: EVLLQQSGPELVKPGASVKIPCKASGYTFTDYDMDWVKQSHGKSLEWIGHINPNNGGTIYNQKFKGKATLTVDKSSSTAYMELRSLTSEDTAVYYCGTGDFAYWGHGTLVTVSA
VL: QIVLTQSPAIMSVSPGEKVTLTCSASSSVSSSYLYWYQKKPGSSPKLWIYSTSNLASGVPARFSGSGSGTSYSLTISSMEAEDAASYFCHQWSSYPPTFGAGTKLELK
notes: chimeric
Regarding B9, the binding result in experiment [1] is “no binding”. Moreover, in [2], the “Mut1 Binding (% wt)” value was determined as 3.77 % wt. Further, the “CFD Enzymatic activity (% of Neg Ctrl)” value in experiment [3] is 49.4 % of Neg Ctrl. Further, the equilibrium dissociation constant (Kd) is 3.1 nM in experiment [4], 2.9 nM in experiment [5], 2.5 nM in experiment [6] and 1.46 nM in experiment [7].
